In patent US20240182536A1 (MURAL ONCOLOGY, published 2024):

T1: IL-18 binding protein (IL-18BP) (UniProt O95998 31-194)
T1 sequence (looked up): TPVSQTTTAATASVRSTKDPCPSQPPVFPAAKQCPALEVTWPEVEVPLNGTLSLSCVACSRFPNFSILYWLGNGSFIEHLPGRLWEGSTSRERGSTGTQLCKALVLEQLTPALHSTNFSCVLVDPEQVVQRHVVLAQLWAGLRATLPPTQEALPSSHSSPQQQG

T2: IL-18 receptors on HEK-Blue IL-18 reporter cells (UniProt Q13478 19-541; O95256 20-599, limits assumed)
T2 sequence (looked up) 1: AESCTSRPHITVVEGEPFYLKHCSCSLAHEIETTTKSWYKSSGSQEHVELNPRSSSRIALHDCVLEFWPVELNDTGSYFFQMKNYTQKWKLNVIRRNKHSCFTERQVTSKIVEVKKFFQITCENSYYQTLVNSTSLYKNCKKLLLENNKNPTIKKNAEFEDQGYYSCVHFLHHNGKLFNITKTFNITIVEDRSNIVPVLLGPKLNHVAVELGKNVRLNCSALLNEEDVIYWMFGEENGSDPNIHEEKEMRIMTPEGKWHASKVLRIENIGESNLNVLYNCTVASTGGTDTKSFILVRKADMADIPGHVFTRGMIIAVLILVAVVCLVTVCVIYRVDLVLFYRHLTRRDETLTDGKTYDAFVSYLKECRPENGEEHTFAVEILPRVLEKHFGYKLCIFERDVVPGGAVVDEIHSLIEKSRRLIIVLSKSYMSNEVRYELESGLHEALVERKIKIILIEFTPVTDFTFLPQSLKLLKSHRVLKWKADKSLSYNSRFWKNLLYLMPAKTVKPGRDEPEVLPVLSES
T2 sequence (looked up) 2: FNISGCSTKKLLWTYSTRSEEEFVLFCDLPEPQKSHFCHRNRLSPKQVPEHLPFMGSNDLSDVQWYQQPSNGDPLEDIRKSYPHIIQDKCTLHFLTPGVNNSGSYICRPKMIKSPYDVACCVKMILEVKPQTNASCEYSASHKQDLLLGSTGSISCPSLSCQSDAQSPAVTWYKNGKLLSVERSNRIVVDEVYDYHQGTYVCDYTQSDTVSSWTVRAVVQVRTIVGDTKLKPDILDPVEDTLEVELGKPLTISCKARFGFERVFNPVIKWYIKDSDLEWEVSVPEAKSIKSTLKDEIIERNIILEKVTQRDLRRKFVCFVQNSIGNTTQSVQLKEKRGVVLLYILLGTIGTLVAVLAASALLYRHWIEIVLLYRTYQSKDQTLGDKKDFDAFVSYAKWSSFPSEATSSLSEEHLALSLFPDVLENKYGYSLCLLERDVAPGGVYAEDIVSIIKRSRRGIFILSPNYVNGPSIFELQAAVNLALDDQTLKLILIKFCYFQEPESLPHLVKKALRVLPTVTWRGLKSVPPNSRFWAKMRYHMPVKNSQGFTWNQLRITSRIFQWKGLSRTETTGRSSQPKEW


How the values were obtained:
[1] = molecular target: T1, IL-18 binding protein (IL-18BP); assay: cell-based or functional assay
[2] = molecular target: T2, IL-18 receptors on HEK-Blue IL-18 …; assay: cell-based or functional assay

Row | Binder | Activity, +100 nM BP, DF-1000002 [1] | Activity, +100 nM BP, DF-5000003 [1] | Activity, +100 nM BP, DF-25000004 [1] | Ratio (-BP/+BP), DF-1000005 [1] | Ratio (-BP/+BP), DF-5000006 [1] | Ratio (-BP/+BP), DF-25000007 [1] | Activity, No BP, DF-100000 [2] | Activity, No BP, DF-500000 [2] | Activity, No BP, DF-2500000 [2]
1 | IL-18 variant G3S, E6Q, K53N, D54T, S55N, T63A, I80T, N91S (ligand) YFSKLQSKLSVIRNLNDQVLFIDQGNRPLFEDMTDSDMRDNAPRTIFIISMYNTNQPRGMAVAISVKSEKISTLSSENKTISFKEMNPPDSIKDTKSDIIFFQRSVPGHDNKMQFESSSYEGYFLASEKERDLFKLILKKEDELGDRSIMFTVQNED | 0.23 | 0.11 | 0.11 | 1.05 | 1.03 | 0.71 | 0.24 | 0.11 | 0.08
2 | IL-18 variant G3L, E6N, I22M, T63V, N91T, R104P (ligand) YFLKLNSKLSVIRNLNDQVLFMDQGNRPLFEDMTDSDMRDNAPRTIFIISMYKDSQPRGMAVVISVKSEKISTLSSENKIISFKEMNPPDTIKDTKSDIIFFQPSVPGHDNKMQFESSSYEGYFLASEKERDLFKLILKKEDELGDRSIMFTVQNED | 0.09 | 0.09 | 0.07 | 0.8 | 0.82 | 0.97 | 0.08 | 0.07 | 0.07
3 | IL-18 variant G3H, E6Q, K53N, D54S, S55P, T63A, N91I, R104S (ligand) YFHKLQSKLSVIRNLNDQVLFIDQGNRPLFEDMTDSDMRDNAPRTIFIISMYNSPQPRGMAVAISVKSEKISTLSSENKIISFKEMNPPDIIKDTKSDIIFFQSSVPGHDNKMQFESSSYEGYFLASEKERDLFKLILKKEDELGDRSIMFTVQNED | 0.21 | 0.12 | 0.08 | 0.86 | 0.78 | 0.91 | 0.18 | 0.09 | 0.07
4 | IL-18 variant G3R, E6D, D54A, S55Q, T63S, N91K, R104P (ligand) YFRKLDSKLSVIRNLNDQVLFIDQGNRPLFEDMTDSDMRDNAPRTIFIISMYKAQQPRGMAVSISVKSEKISTLSSENKIISFKEMNPPDKIKDTKSDIIFFQPSVPGHDNKMQFESSSYEGYFLASEKERDLFKLILKKEDELGDRSIMFTVQNED | 0.07 | 0.08 | 0.07 | 0.98 | 0.98 | 0.96 | 0.07 | 0.08 | 0.07
5 | IL-18 variant G3P, E6K, K53T, D54Y, S55V, T63I, N91I (ligand) YFPKLKSKLSVIRNLNDQVLFIDQGNRPLFEDMTDSDMRDNAPRTIFIISMYTYVQPRGMAVIISVKSEKISTLSSENKIISFKEMNPPDIIKDTKSDIIFFQRSVPGHDNKMQFESSSYEGYFLASEKERDLFKLILKKEDELGDRSIMFTVQNED | 0.32 | 0.11 | 0.08 | 0.81 | 1.01 | 0.93 | 0.26 | 0.11 | 0.07
6 | IL-18 variant G3P, E6K, K53N, D54S, S55P, T63S, N91S, R104Q (ligand) YFPKLKSKLSVIRNLNDQVLFIDQGNRPLFEDMTDSDMRDNAPRTIFIISMYNSPQPRGMAVSISVKSEKISTLSSENKIISFKEMNPPDSIKDTKSDIIFFQQSVPGHDNKMQFESSSYEGYFLASEKERDLFKLILKKEDELGDRSIMFTVQNED | 0.07 | 0.07 | 0.07 | 0.92 | 1.03 | 0.95 | 0.07 | 0.08 | 0.07
